In patent publication US20110200608A1 (UNIVERSITY OF PITTSBURGH OF THE COMMONWEALTH SYSTEM OF …, published 2011):
Bridges are numbered along the chain shown (N, C = ends). Where no end group is shown, it is not given here.

Experiments:
[1] = target: T1, HMW-MAA-specific human scFv C21 (biotinylated (NHS-LC-biotin) in the competition and panning assays); test: SPR (Biacore 3000, 25 C), peptide over amine-coupled scFv C21, 1:1 Langmuir fit
[2] = target: T1, HMW-MAA-specific human scFv C21; test: SPR (Biacore 3000, 25 C), peptide over amine-coupled scFv C21, koff/kon
[3] = target: T1, HMW-MAA-specific human scFv C21; test: calculated from a molecular docking model (…); not measured
[4] = target: T1, HMW-MAA-specific human scFv C21; test: inhibition cell ELISA: peptide incubated 2 h at 4 °C with PP scFv C21 (1:1600) and biotinylated mAb 9E10, then added to Colo38 cells, SA-HRP; blocked ligand: HMW-MAA on Colo38 cells

T1 sequence (chain, as listed by the source): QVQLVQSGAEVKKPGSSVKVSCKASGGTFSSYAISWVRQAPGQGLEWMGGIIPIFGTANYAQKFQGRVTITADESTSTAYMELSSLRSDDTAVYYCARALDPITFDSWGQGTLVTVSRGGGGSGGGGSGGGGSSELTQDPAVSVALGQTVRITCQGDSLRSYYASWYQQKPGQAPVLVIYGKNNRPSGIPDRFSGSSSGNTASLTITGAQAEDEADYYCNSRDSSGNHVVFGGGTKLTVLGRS

Binder	koff [1] [s⁻¹]	kon [1] [M⁻¹ s⁻¹]	Kd [2] [µM]	Total Energy (calculated binding energy) [3] [kJ/mol]	IC50 (read off the curve) [4] [µM]
RPYRYDPLGSLKSRH [peptide P3S10 (RPYRYDPLGSLKSRH)]	0.00307	917	3.34	-68.6	–
RPYRYDPLGDLKSRH [peptide P3C21 (RPYRYDPLGDLKSRH), linear]	0.0655	2170	30.2	-30.5	~1
SPSWYCPDCDKRPLV (disulfide 6-9 (inferred), Synthetic peptide) [peptide P1C21 (SPSWYCPDCDKRPLV), cyclized]	0.0097	1180	8.24	-392	~3
